Results from patent US12338277.

How the values were obtained:
Experiment in all cases: cell-based or functional assay
[1] = target: HIV-1 Env of pseudovirus 0260.v5.c36 (HIV-1)
[2] = target: HIV-1 Env of pseudovirus 1394C9G1(Rev-) (HIV-1)
[3] = target: HIV-1 Env of pseudovirus 191821_E6_1 (HIV-1)
[4] = target: HIV-1 Env of pseudovirus 211-9 (HIV-1)
[5] = target: HIV-1 Env of pseudovirus 235-47 (HIV-1)
[6] = target: HIV-1 Env of pseudovirus 3103.v3.c10 (HIV-1)
[7] = target: HIV-1 Env of pseudovirus 3365.v2.c2 (HIV-1)
[8] = target: HIV-1 Env of pseudovirus 6480.v4.c25 (HIV-1)
[9] = target: HIV-1 Env of pseudovirus 6535.3 (HIV-1)
[10] = target: HIV-1 Env of pseudovirus AC10.0.29 (HIV-1)
[11] = target: HIV-1 Env of pseudovirus C2101.c01 (HIV-1)
[12] = target: HIV-1 Env of pseudovirus CNE17 (HIV-1)
[13] = target: HIV-1 Env of pseudovirus CNE52 (HIV-1)
[14] = target: HIV-1 Env of pseudovirus CNE58 (HIV-1)
[15] = target: HIV-1 Env of pseudovirus Ce703010054_2A2 (HIV-1)
[16] = target: HIV-1 Env of pseudovirus HIV-16845-2.22 (HIV-1)
[17] = target: HIV-1 Env of pseudovirus T251-18 (HIV-1)
[18] = target: HIV-1 Env of pseudovirus T278-50 (HIV-1)
[19] = target: HIV-1 Env of pseudovirus TRJO4551.58 (HIV-1)
[20] = target: HIV-1 Env of pseudovirus WEAU_d15_410_787 (HIV-1)
[21] = target: HIV-1 Env of pseudovirus X1254_c3 (HIV-1)
[22] = target: HIV-1 envelope of pseudovirus 1054_07_TC4_1499 (HIV-1)
[23] = target: HIV-1 envelope of pseudovirus 191821_E6_1 (HIV-1)
[24] = target: HIV-1 envelope of pseudovirus 231965.c01 (HIV-1)
[25] = target: HIV-1 envelope of pseudovirus 235-47 (HIV-1)
[26] = target: HIV-1 envelope of pseudovirus 263-8 (HIV-1)
[27] = target: HIV-1 envelope of pseudovirus 3016.v5.c45 (HIV-1)
[28] = target: HIV-1 envelope of pseudovirus 6535.3 (HIV-1)
[29] = target: HIV-1 envelope of pseudovirus 89-F1_2_25 (HIV-1)
[30] = target: HIV-1 envelope of pseudovirus 9004SS_A3_4 (HIV-1)
[31] = target: HIV-1 envelope of pseudovirus 928-28 (HIV-1)
[32] = target: HIV-1 envelope of pseudovirus C3347.c11 (HIV-1)
[33] = target: HIV-1 envelope of pseudovirus CAP45.2.00.G3 (HIV-1)
[34] = target: HIV-1 envelope of pseudovirus CNE30 (HIV-1)
[35] = target: HIV-1 envelope of pseudovirus Ce1176_A3 (HIV-1)
[36] = target: HIV-1 envelope of pseudovirus Du156.12 (HIV-1)
[37] = target: HIV-1 envelope of pseudovirus HIV-0013095-2.11 (HIV-1)
[38] = target: HIV-1 envelope of pseudovirus PVO.4 (HIV-1)
[39] = target: HIV-1 envelope of pseudovirus Q451.e2 (HIV-1)
[40] = target: HIV-1 envelope of pseudovirus Q769.d22 (HIV-1)
[41] = target: HIV-1 envelope of pseudovirus Q842.d12 (HIV-1)
[42] = target: HIV-1 envelope of pseudovirus THRO4156.18 (HIV-1)
[43] = target: HIV-1 envelope of pseudovirus WITO4160.33 (HIV-1)
[44] = target: HIV-1 envelope of pseudovirus X1632_S2_B10 (HIV-1)
[45] = target: HIV-1 envelope of pseudovirus YU-2 (HIV-1)
[46] = target: HIV-1 envelope of pseudovirus ZM197M.PB7 (HIV-1)
[47] = target: HIV-1 envelope of pseudovirus ZM247v1(Rev-) (HIV-1)
[48] = target: HIV-1 envelope spike of pseudovirus 6535.3 (HIV-1)
[49] = target: HIV-1 envelope spike of pseudovirus BaL.26 (HIV-1)
[50] = target: HIV-1 envelope spike of pseudovirus CAAN5342.A2 (HIV-1)

Chain of 10-1074 (antibody) (VH): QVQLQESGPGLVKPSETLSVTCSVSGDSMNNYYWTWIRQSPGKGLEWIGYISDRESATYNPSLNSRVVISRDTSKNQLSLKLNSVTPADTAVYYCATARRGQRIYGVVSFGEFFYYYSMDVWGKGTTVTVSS
Chain of 10-1074 (antibody) (V domain): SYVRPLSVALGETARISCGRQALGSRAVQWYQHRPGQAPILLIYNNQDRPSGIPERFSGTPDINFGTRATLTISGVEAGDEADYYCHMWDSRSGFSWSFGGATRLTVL

In the case of 10-1074 (antibody), the IC80 (TZM-bl neutralization) [1] is reported as 0.16 µg/mL, the IC80 (TZM-bl neutralization) [2] is reported as 0.191 µg/mL and the IC80 (TZM-bl neutralization) [3] is reported as greater than 50 µg/mL. The IC80 (TZM-bl neutralization) [4] was 0.425 µg/mL, the IC80 (TZM-bl neutralization) [5] was 0.163 µg/mL and the IC80 (TZM-bl neutralization) [6] was 0.101 µg/mL. It also gave an IC80 (TZM-bl neutralization) [7] of 0.45 µg/mL, an IC80 (TZM-bl neutralization) [8] of 0.041 µg/mL and an IC80 (TZM-bl neutralization) [9] of 0.026 µg/mL. It also gave an IC80 (TZM-bl neutralization) [10] of 0.11 µg/mL, an IC80 (TZM-bl neutralization) [11] greater than 50 µg/mL and an IC80 (TZM-bl neutralization) [12] of 13.3 µg/mL. For the same substance, the IC80 (TZM-bl neutralization) [13] was 13.1 µg/mL, the IC80 (TZM-bl neutralization) [14] was 0.968 µg/mL and the IC80 (TZM-bl neutralization) [15] was greater than 50 µg/mL. The IC80 (TZM-bl neutralization) [16] was 5.83 µg/mL, the IC80 (TZM-bl neutralization) [17] was 7.39 µg/mL and the IC80 (TZM-bl neutralization) [18] was 18.3 µg/mL. It also gave an IC80 (TZM-bl neutralization) [19] of 0.634 µg/mL, an IC80 (TZM-bl neutralization) [20] of 0.375 µg/mL and an IC80 (TZM-bl neutralization) [21] of 0.297 µg/mL. The IC50 (TZM-bl neutralization) [22] was 0.129 µg/mL, the IC50 (TZM-bl neutralization) [23] was greater than 50 µg/mL and the IC50 (TZM-bl neutralization) [24] was greater than 50 µg/mL. It also gave an IC50 (TZM-bl neutralization) [25] of 0.05 µg/mL, an IC50 (TZM-bl neutralization) [26] of 0.666 µg/mL and an IC50 (TZM-bl neutralization) [27] greater than 50 µg/mL. It also gave an IC50 (TZM-bl neutralization) [28] of 0.014 µg/mL, an IC50 (TZM-bl neutralization) [29] greater than 50 µg/mL and an IC50 (TZM-bl neutralization) [30] of 0.011 µg/mL. It also gave an IC50 (TZM-bl neutralization) [31] of 0.847 µg/mL, an IC50 (TZM-bl neutralization) [32] greater than 50 µg/mL and an IC50 (TZM-bl neutralization) [33] greater than 50 µg/mL. The IC50 (TZM-bl neutralization) [34] was 0.363 µg/mL, the IC50 (TZM-bl neutralization) [35] was 0.018 µg/mL and the IC50 (TZM-bl neutralization) [36] was 0.015 µg/mL. The IC50 (TZM-bl neutralization) [37] was greater than 50 µg/mL, the IC50 (TZM-bl neutralization) [38] was 0.074 µg/mL and the IC50 (TZM-bl neutralization) [39] was greater than 50 µg/mL. For the same substance, the IC50 (TZM-bl neutralization) [40] was greater than 50 µg/mL, the IC50 (TZM-bl neutralization) [41] was greater than 50 µg/mL and the IC50 (TZM-bl neutralization) [42] was greater than 50 µg/mL. It also gave an IC50 (TZM-bl neutralization) [43] of 0.185 µg/mL, an IC50 (TZM-bl neutralization) [44] greater than 50 µg/mL and an IC50 (TZM-bl neutralization) [45] of 0.143 µg/mL. The IC50 (TZM-bl neutralization) [46] was greater than 50 µg/mL, the IC50 (TZM-bl neutralization) [47] was 0.042 µg/mL and the IC50 (TZM-bl neutralization assay) [48] was 0.007 µg/mL. It also gave an IC80 (TZM-bl neutralization assay) [48] of 0.044 µg/mL, an IC50 (TZM-bl neutralization assay) [49] of 0.033 µg/mL and an IC80 (TZM-bl neutralization assay) [49] of 0.124 µg/mL. The IC50 (TZM-bl neutralization assay) [50] was 0.007 µg/mL and the IC80 (TZM-bl neutralization assay) [50] was 0.044 µg/mL.
For PGT121 (antibody), the IC80 (TZM-bl neutralization) [1] was 0.152 µg/mL, the IC80 (TZM-bl neutralization) [2] was 3.37 µg/mL and the IC80 (TZM-bl neutralization) [3] was greater than 50 µg/mL. It also gave an IC80 (TZM-bl neutralization) [4] of 8.84 µg/mL, an IC80 (TZM-bl neutralization) [5] of 1.68 µg/mL and an IC80 (TZM-bl neutralization) [6] of 0.11 µg/mL. The IC80 (TZM-bl neutralization) [7] was 7.35 µg/mL, the IC80 (TZM-bl neutralization) [8] was 0.079 µg/mL and the IC80 (TZM-bl neutralization) [9] was 0.021 µg/mL. It also gave an IC80 (TZM-bl neutralization) [10] of 0.169 µg/mL, an IC80 (TZM-bl neutralization) [11] greater than 50 µg/mL and an IC80 (TZM-bl neutralization) [12] greater than 50 µg/mL. It also gave an IC80 (TZM-bl neutralization) [13] of 32.9 µg/mL, an IC80 (TZM-bl neutralization) [14] greater than 50 µg/mL and an IC80 (TZM-bl neutralization) [15] greater than 50 µg/mL. The IC80 (TZM-bl neutralization) [16] was greater than 50 µg/mL, the IC80 (TZM-bl neutralization) [17] was greater than 50 µg/mL and the IC80 (TZM-bl neutralization) [18] was greater than 50 µg/mL. It also gave an IC80 (TZM-bl neutralization) [19] of 35.3 µg/mL, an IC80 (TZM-bl neutralization) [20] of 0.295 µg/mL and an IC80 (TZM-bl neutralization) [21] of 0.199 µg/mL. It also gave an IC50 (TZM-bl neutralization) [22] of 0.115 µg/mL, an IC50 (TZM-bl neutralization) [23] greater than 50 µg/mL and an IC50 (TZM-bl neutralization) [24] greater than 50 µg/mL. The IC50 (TZM-bl neutralization) [25] was 0.332 µg/mL, the IC50 (TZM-bl neutralization) [26] was 3.35 µg/mL and the IC50 (TZM-bl neutralization) [27] was greater than 50 µg/mL. The IC50 (TZM-bl neutralization) [28] was 0.008 µg/mL, the IC50 (TZM-bl neutralization) [29] was greater than 50 µg/mL and the IC50 (TZM-bl neutralization) [30] was 0.008 µg/mL. The IC50 (TZM-bl neutralization) [31] was greater than 50 µg/mL, the IC50 (TZM-bl neutralization) [32] was greater than 50 µg/mL and the IC50 (TZM-bl neutralization) [33] was 0.086 µg/mL. It also gave an IC50 (TZM-bl neutralization) [34] of 0.101 µg/mL, an IC50 (TZM-bl neutralization) [35] of 0.017 µg/mL and an IC50 (TZM-bl neutralization) [36] of 0.007 µg/mL. For the same substance, the IC50 (TZM-bl neutralization) [37] was greater than 50 µg/mL, the IC50 (TZM-bl neutralization) [38] was 0.131 µg/mL and the IC50 (TZM-bl neutralization) [39] was greater than 50 µg/mL. It also gave an IC50 (TZM-bl neutralization) [40] greater than 50 µg/mL, an IC50 (TZM-bl neutralization) [41] of 0.023 µg/mL and an IC50 (TZM-bl neutralization) [42] greater than 50 µg/mL. For the same substance, the IC50 (TZM-bl neutralization) [43] was 0.459 µg/mL, the IC50 (TZM-bl neutralization) [44] was greater than 50 µg/mL and the IC50 (TZM-bl neutralization) [45] was 0.098 µg/mL. It also gave an IC50 (TZM-bl neutralization) [46] greater than 50 µg/mL, an IC50 (TZM-bl neutralization) [47] of 0.027 µg/mL and an IC50 (TZM-bl neutralization assay) [48] of 0.007 µg/mL. For the same substance, the IC80 (TZM-bl neutralization assay) [48] was 0.041 µg/mL, the IC50 (TZM-bl neutralization assay) [49] was 0.021 µg/mL and the IC80 (TZM-bl neutralization assay) [49] was 0.081 µg/mL. For the same substance, the IC50 (TZM-bl neutralization assay) [50] was 0.013 µg/mL and the IC80 (TZM-bl neutralization assay) [50] was 0.056 µg/mL.
